This note sets out measurements from patent publication US20080152587A1 (Amgen, published 2008).

Assay [1] deals with T1, human urokinase-type plasminogen activator receptor (uPAR, CD87), cell-bound (human, UniProt Q03405 23-305). Nature of the assay: cell-based or functional assay.
For assay [2], the target named is T2, soluble recombinant human uPAR/His6 (R&D Systems, Cat. # 807-UK-100) (human, UniProt Q03405 23-303).
T2 construct: range 1-303; Bought protein; also called soluble uPAR; hu-uPAR
Nature of the assay: low resolution Biacore.
Description: (§1) A high-density goat anti-human antibody surface over a CM5 Biacore™ chip was prepared using routine amine coupling. […] Each mAb was captured on a separate flow cell using a 30-second contact time at 10 μL/min followed by a 5-minute wash at a 100 μL/min flow rate for stabilization of the mAb baseline. […] All antigen samples were prepared in the running buffer.

In assay [3] the target is T3, murine uPAR (form not stated) (mouse, UniProt P35456 24-297, limits assumed).
T3 construct: also called mouse uPAR
T3 sequence (looked up): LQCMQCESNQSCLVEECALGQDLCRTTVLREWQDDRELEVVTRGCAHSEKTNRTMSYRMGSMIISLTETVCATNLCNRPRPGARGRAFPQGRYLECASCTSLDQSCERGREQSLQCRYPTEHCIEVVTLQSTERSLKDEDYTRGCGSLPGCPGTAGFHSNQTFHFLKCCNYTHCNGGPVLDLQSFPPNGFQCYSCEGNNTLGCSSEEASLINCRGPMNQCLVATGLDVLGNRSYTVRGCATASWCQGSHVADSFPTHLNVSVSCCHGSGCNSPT
Briefly: summary column Murine X-reactivity.

Assay [4] addresses T4, human Ly6e with a myc tag, expressed in HEK293T cells (human, UniProt Q16553 21-101).
T4 construct: whole, on cells; not shown: myc tag fused on the molecule
T4 sequence (looked up): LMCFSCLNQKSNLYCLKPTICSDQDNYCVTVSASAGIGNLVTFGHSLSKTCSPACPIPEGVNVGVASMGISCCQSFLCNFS
Nature of the assay: FACS, HEK293T cells expressing Ly6e, supernatant 1:2.

Assay [5] deals with T1, human urokinase-type plasminogen …. Briefly: FACS competition with FITC-tc-uPA, line material.
Excerpt: (§2) Briefly, murine fibroblast L929 cells (ATCC) were transfected to express human uPAR.
The target in assay [6] is T2, soluble recombinant human uPAR/His6 …. Briefly: limited antigen ELISA, uPAR coat 20 ng/mL, sample 1:25.
Description: (§3) ELISA plates were coated with a lower amount ofuPAR in comparison with the High Antigen Quantitation assay described below (320, 160, 80, 40 and 20 ng/mL). Samples containing one concentration of antibody (Ab) (1:25 dilution) were incubated overnight to allow Ab binding to approach equilibrium.
Assay [7] has the same target. Briefly: limited antigen ELISA, uPAR coat 80 ng/mL, sample 1:25.
Description: as §3
Assay [8] addresses T1, human urokinase-type plasminogen …. Nature of the assay: FACS, B300.19 cells expressing human uPAR, anti-human gamma Cy5.
Assay [9] deals with T2, soluble recombinant human uPAR/His6 …. Briefly: low resolution Biacore, mAb captured by goat anti-human, hu-uPAR 312 nM.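 Also: surface plasmon resonance on a CM5 chip with goat anti-human antibody surface made by amine coupling, each mAb from supernatant captured per flow cell, kinetics fitted including mass transport.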
Description: as §1
A mass transport coefficient was used in fitting the data.
Assay [10] has as its target T1, human urokinase-type plasminogen …. Briefly: FACS competition, FITC-tc-uPA on L929 cells expressing human uPAR, supernatant 1:2.
Excerpt: as §2
Assay [11] has as its target T5, mouse uPAR on the surface of NCTC L929 cells (mouse, UniProt P35456 24-298).
T5 construct: whole, on cells; also called cell surface mouse uPAR
T5 sequence (looked up): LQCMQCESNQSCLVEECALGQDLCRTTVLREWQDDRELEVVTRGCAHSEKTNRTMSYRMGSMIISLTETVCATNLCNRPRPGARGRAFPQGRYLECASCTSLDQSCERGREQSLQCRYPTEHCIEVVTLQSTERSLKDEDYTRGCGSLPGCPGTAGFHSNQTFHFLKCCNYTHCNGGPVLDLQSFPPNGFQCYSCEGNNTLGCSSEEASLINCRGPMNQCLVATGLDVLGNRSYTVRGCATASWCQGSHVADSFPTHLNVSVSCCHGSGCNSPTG
Nature of the assay: FACS, NCTC L929 mouse cells.
Description: (§4) To make the mouse cross-reactivity results conclusive, direct binding of the mAbs to cell-bound mouse uPAR was measured using FACS analysis. The mouse cell line derived from the connective tissue, NCTC L929, was employed for FACS analysis. The harvested cells were resuspended at 50,000 cells/well using FACS buffer into a V-bottom plate which was put on ice. […] After washing, Cy5-labeled goat anti-human IgG Fc at 5 μg/ml and 7AAD at 5 μg/ml was added. The mixtures were incubated for 15 min on ice, washed and resuspended in cold FACS buffer for FACS analysis.

The target of assay [12] is T5, mouse uPAR on the surface of NCTC L929 …. Briefly: FACS, NCTC L929 mouse cells, mAb 6.25 µg/ml.
Description: as §4
In assay [13] the target is T6, cynomolgus monkey uPAR, cell-bound (cynomolgus monkey, UniProt Q9GK78 23-305).
T6 construct: whole, on cells; also called cyno-uPAR
Nature of the assay: FACS, GeoMean; cynomolgus uPAR expressed on 293T cells; antibody concentration not given.

T2 sequence (Q03405 other isoform, or with tags, fused parts or gaps limits assumed, form in doubt): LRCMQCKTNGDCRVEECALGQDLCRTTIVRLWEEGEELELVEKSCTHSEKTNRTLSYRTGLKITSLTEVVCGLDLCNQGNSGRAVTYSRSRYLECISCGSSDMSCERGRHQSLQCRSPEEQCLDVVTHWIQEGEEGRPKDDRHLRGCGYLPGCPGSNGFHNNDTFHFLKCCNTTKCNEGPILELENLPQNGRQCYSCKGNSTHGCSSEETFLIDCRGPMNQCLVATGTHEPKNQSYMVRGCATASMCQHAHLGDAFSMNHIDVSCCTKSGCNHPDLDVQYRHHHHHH
T1 sequence (Q03405 23-305): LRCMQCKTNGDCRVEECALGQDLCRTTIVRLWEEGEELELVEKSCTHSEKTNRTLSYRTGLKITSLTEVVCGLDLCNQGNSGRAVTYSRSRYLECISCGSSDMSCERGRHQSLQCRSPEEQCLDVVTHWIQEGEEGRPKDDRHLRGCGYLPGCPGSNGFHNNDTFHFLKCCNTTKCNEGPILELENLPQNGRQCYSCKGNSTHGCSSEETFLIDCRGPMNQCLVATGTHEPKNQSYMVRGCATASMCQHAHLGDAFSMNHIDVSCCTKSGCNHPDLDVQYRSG
T6 sequence (Q9GK78 23-305): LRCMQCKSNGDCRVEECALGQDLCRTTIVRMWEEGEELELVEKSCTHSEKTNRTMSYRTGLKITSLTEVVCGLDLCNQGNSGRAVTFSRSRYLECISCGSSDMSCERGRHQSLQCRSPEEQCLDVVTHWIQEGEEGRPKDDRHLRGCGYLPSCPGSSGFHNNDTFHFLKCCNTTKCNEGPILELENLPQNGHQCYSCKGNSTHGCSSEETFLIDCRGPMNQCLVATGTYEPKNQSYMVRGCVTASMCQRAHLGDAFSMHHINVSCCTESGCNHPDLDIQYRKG

B1: anti-uPAR monoclonal antibody 3.8.3 (antibody, V domains shown)
VH: EVQLVESGGGLVQPGGSLRLSCAASGFTFSSYWMSWVRQAPGKGLEWVANIKQHGSEKYYVDSVKGRFTISRDNAKNSLYLQMNSLRAEDTAVYYCAREEAYYYDNSGYYWYFDLWARGTLVTVSS
VL: DIQMTQSPSSVSASIGDRVTITCRASQGISSWLAWYQQKPGKTPKLLIYAASSLQSGVPSRFSGSGSGTDFTLTISSLQPEDFATYYCQQADSFPWTFGQGTKVEIK
Turning to B1, in [1], the “Plasminogen activation inhibition (IC50, ug/ml)” value was found to be 0.328 µg/mL. Besides, the Kd in [2] and in [9] was 3.1 nM each time. Moreover, the binding result in [3] is on record as “no binding”; in assay [4], “no binding (tested: GeoMean ratio 1.95)”. The “Human uPAR/uPA binding inhibition (%, line material)” value in [5] came to 70%. Also, the “LA at 20 ng/ml” value in assay [6] was 0.67. Further, the “LA at 80 ng/ml” value in [7] is 2.57. Also, the “gCy5 Geo Mean Pos Cells” value in assay [8] was determined as 451. In addition, in assay [9], the koff amounted to 6.8e-05 s⁻¹. Also, the kon in assay [9] worked out at 22000 M⁻¹ s⁻¹. Besides, in assay [10], the “uPA/uPAR binding Inhibition %” value was determined as 70%.

B2: anti-uPAR monoclonal antibody 1.100.1 (antibody, V domains shown)
VH: EVQLVESGGGLLQPGGSLRLSCAASGFTVRNNYMNWVRQAPGKGLEWVSVIYTGGSTYYADSVKGRFTISRDNSKNTLYLQMNSLRAEDTAVYYCAREGKLAGMDVWGQGTTVTVSS
VL: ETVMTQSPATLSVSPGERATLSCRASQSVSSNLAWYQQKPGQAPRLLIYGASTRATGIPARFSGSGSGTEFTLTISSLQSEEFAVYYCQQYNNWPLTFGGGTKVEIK
Regarding B2, the “Plasminogen activation inhibition (IC50, ug/ml)” value in assay [1] was found to be 0.061 µg/mL. The Kd in [2] and in assay [9] was 2.3 nM in each case. The binding result is “no binding (tested: 6.25 µg/ml)” in assay [11], “no binding” in assay [3], “no binding (tested: GeoMean ratio 1.95)” in assay [4] and “binds” in assay [13]. Also, the “X Geo Mean” value in assay [12] was 9.89. For the same molecule, the “Human uPAR/uPA binding inhibition (%, line material)” value in assay [5] was 78%. Also, the “LA at 20 ng/ml” value in assay [6] worked out at 0.27. Also, in assay [7], the “LA at 80 ng/ml” value was found to be 2.15. Besides, the “gCy5 Geo Mean Pos Cells” value in assay [8] stood at 521. Further, the koff in assay [9] is 0.00017 s⁻¹. In addition, in [9], the kon came out at 75000 M⁻¹ s⁻¹. In addition, the “uPA/uPAR binding Inhibition %” value in assay [10] is 78%.

B3: anti-uPAR monoclonal antibody 1.4.2 (antibody, V domains shown)
VH: EVQLVESGGGLVQPGGSLRLSCAASGFTFSSYDMHWVRQATGKGLEWVSAIGTAGDTYYPGSVKGRFTISRENAKNSLYLQMNSLRAGDTAVYYCAREGDYSNYFTMVRGVTYGMDVWGQGTTVTVSS
VL: DIQLTQSPSSLCASVGDRITITCRASQGISKYLAWFQQKPGKAPKSLIYGASSLQSGVPAKFSGSGSGTDFTLTISSLQPEDFATYYCQQYNSYPLTFGGGTKVEIK
Regarding B3, the “Plasminogen activation inhibition (IC50, ug/ml)” value in assay [1] was 0.075 µg/mL. Also, the Kd in [2] and in [9] was 8.7 nM throughout. Further, the binding result in assay [11] is “no binding (tested: 6.25 µg/ml)”; in [3], “no binding”; in assay [4], “no binding (tested: GeoMean ratio 1.95)”; in [13], “binds”. In addition, in [12], the “X Geo Mean” value is 12.4. Moreover, the “Human uPAR/uPA binding inhibition (%, line material)” value in assay [5] is 69%. In addition, the “LA at 20 ng/ml” value in [6] was 0.16. Also, the “LA at 80 ng/ml” value in [7] stood at 0.66. Besides, the “gCy5 Geo Mean Pos Cells” value in assay [8] is 419. Also, the koff in [9] came to 0.00096 s⁻¹. In addition, the kon in assay [9] was determined as 110000 M⁻¹ s⁻¹. Moreover, the “uPA/uPAR binding Inhibition %” value in assay [10] was found to be 69%.

B4: anti-uPAR monoclonal antibody 1.61.1 (antibody, V domains shown)
VH: EVQLVESGGGLVQPGGSLRLSCAASGFTFSSYDMHWVRQATGKGLEWVSAIGTAGDTYYPGSVKGRFTISRENAKNSLYLQMNSLRAGDTAVYYCAREGDYSNYFTRVRGVTYGMDVWGQGTTVTVSS
VL: DIQMTQSPSSLSASVGDRVTITCRASQGISKYLAWFQQKPGKAPKSLIYGASSLQSGVPSKFSGSGSGTDFTLTISSLQPEDFATYYCQQYNSYPLTFGGGTKVEIK
Regarding B4, the “Plasminogen activation inhibition (IC50, ug/ml)” value in assay [1] stood at 0.119 µg/mL. For the same molecule, the Kd in assay [2] and in assay [9] was 2.7 nM throughout. Besides, the binding result in [11] is “no binding (tested: 6.25 µg/ml)”; in [3], “no binding”; in assay [4], “no binding (tested: GeoMean ratio 1.95)”; in assay [13] it was “binds”. The “X Geo Mean” value in [12] was found to be 9.7. Further, the “Human uPAR/uPA binding inhibition (%, line material)” value in assay [5] stood at 69%. In addition, the “LA at 20 ng/ml” value in [6] is 0.27. Also, the “LA at 80 ng/ml” value in assay [7] was 1.99. The “gCy5 Geo Mean Pos Cells” value in [8] turned out to be 559. In addition, the koff in [9] was determined as 0.00025 s⁻¹. For the same molecule, the kon in assay [9] came to 94000 M⁻¹ s⁻¹. Also, in [10], the “uPA/uPAR binding Inhibition %” value was 69%.

B5: anti-uPAR monoclonal antibody 1.113.2 (antibody, V domains shown)
VH: QVQLVESGGGVVQPGRSLRLSCAASGFTFSSYGMHWVRQAPGKGLEWVAVIWYDGSNKYYADSVKGRFTISRDNSKNTLYLQMNSLRAEDTAVYYCARDLAALYYYYGMHVWGQGTTVTVSS
VL: EIVMTQSPATLSVSPGERATLSCRASQSFSSNLAWYQQKPGQAPRLLIYGASTRATGIPARFSGSGSGTEFTLTISSLQSEDFAVYYCQQNNNWPRTFGQGTKVEIK
As for B5, the “Plasminogen activation inhibition (IC50, ug/ml)” value in assay [1] was found to be 0.775 µg/mL. The Kd in [2] and in assay [9] was 4.6 nM throughout. Moreover, the binding result in assay [11] was “no binding (tested: 6.25 µg/ml)”; in [3], “no binding”; in assay [4], “no binding (tested: GeoMean ratio 1.95)”; in [13], “binds”. Further, in [12], the “X Geo Mean” value came to 10.2. For the same molecule, the “Human uPAR/uPA binding inhibition (%, line material)” value in assay [5] came to 75%. Besides, the “LA at 20 ng/ml” value in assay [6] came out at 0.53. Further, in assay [7], the “LA at 80 ng/ml” value came to 1.8. Moreover, the “gCy5 Geo Mean Pos Cells” value in assay [8] was found to be 511. Further, the off-rate constant (koff) in assay [9] was 0.00013 s⁻¹. Besides, the kon in assay [9] is 28000 M⁻¹ s⁻¹. Also, the “uPA/uPAR binding Inhibition %” value in assay [10] turned out to be 75%.

B6: anti-uPAR monoclonal antibody 1.41.1 (antibody, V domains shown)
VH: QVQLVESGGGVVQPGRSLRLSCAAPGFTFSSYGMHWVRQAPGKGLEWVAVIWYDGSQKYYADSVKGRFTISRDNSKNTLYLQMNSLRAEDTAVYYCARGMTYYYYYGMDVWGQGTTVTVSS
VL: EIVMTQSPAILSVSPGERATLSCRASQSVSSKLDWYQQKPGQAPRLLIYGASTRATGIPARFSGSGSGTEFTLTISSLQSEDFAVYYCQQYNNWPRTFGQGTKVEIK
For the molecule B6, the “Plasminogen activation inhibition (IC50, ug/ml)” value in assay [1] is 0.181 µg/mL. In addition, the Kd in assay [2] and in assay [9] was 3.9 nM each time. In addition, the binding result is listed as “no binding (tested: 6.25 µg/ml)” in [11], “no binding” in assay [3], “no binding (tested: GeoMean ratio 1.95)” in assay [4] and “binds” in [13]. In assay [12], the “X Geo Mean” value amounted to 9.59. The “Human uPAR/uPA binding inhibition (%, line material)” value in assay [5] was determined as 74%. In addition, in assay [6], the “LA at 20 ng/ml” value is 0.27. Besides, in [7], the “LA at 80 ng/ml” value turned out to be 1.48. In assay [8], the “gCy5 Geo Mean Pos Cells” value came out at 422. In addition, in [9], the koff was found to be 0.00013 s⁻¹. In assay [9], the kon turned out to be 33000 M⁻¹ s⁻¹. Besides, the “uPA/uPAR binding Inhibition %” value in assay [10] came to 74%.
